Test results from patent US5001064A, “Phosphatidylinositol 4-kinase” (Washington University, priority 1988, dated 1991).

Substrate: Nc1ncnc2c1ncn2[C@@H]1O[C@H](COP(=O)(O)OP(=O)(O)OP(=O)(O)O)[C@@H](O)[C@H]1O
Experiment: PtdIns 4-kinase activity assay: kinetic parameters, specific activity, pH optimum
Format: biochemical, bovine
Conditions: other: purified enzyme, pH 7.4 (Tris-HCl), double-reciprocal plot, 30.0 °C
Procedure: PtdIns 4-kinase activity was assayed in 60 μl at 30° C. in 20 mM BisTris-HCl (pH 7.0), 10 mM MgCl2, 1.0% Triton X-100, 0.25 mg/ml phosphatidylinositol, and 150 μM ATP (1.25 μCi[-^32 P]ATP), unless otherwise noted. The reaction was terminated by the addition of 12 μl of cold HCl, 120 μl of cold methanol, 150 μl of chloroform, and 40 μl of H2 O. The extracted samples were centrifuged at 12,000 × g for 1 min. and the aqueous layer removed and discarded. When needed, the organic phase was washed with 40 μl of cold methanol and 40 μl of cold 1.0 N HCl, centrifuged at 12,000 × g, and the aqueous layer was removed. The organic phase was then dried under vacuum in a Savant speed-vac, resuspended in 40 μl of chloroform/methanol (2:1), and chromatographed on potassium oxalate-impregnated Silica Gel 60 thin layer chromatography plates (TLC). The solvent system used consisted of chloroform/methanol/ammonium hydroxide/water (51:39.6:3:8.4). […] The reaction product, phosphatidylinositol 4-phosphate, was visualized by autoradiography, and the corresponding area of the TLC plate was scraped and quantitated by Cherenkov counting. […]
In order to optimize the assay of this enzyme, the pH optimum for Ptdlns 4-kinase was determined. […]

B1: PtdIns 4-kinase (Bos taurus) (protein)
chain: MDETSPLVSPERAQPPDYTFPSGSSAHFPQVPGGAVRVAAAAGPVSSPPGSPGHDRERQPLLDRARGAAAQGQTQTVAAQAQALAAQAAAAAHAAQAHRERNEFPEDPEFEAVVRQAELAIERGIFPERIYQGSSGSYFVKDPQGKIIAVFKPKNEEPYGQLNPKWTKWLQKLCCPCCFGRDCLVLNQGYLSEAGASLVDQKLELNIVPRTKVVYLASETFNYSAIDRVKSRGKRLALEKVPKVGQRFNRIGLPPKVGSFQLFVESYKDADYWLRRFEAEPLPENTNRQLLLQFERLVVLDYIIRNTDRGNDNWLIKYDCPMDSSNSRDTDWVVVKEPVIKVAAIDNGLAFPLKHPDSWRAYPFYWAWLPQAKVPFSQEIKDLILPKISDPNFVKDLEEDLYELFKKDPGFDRGQFHKQIAVMRGQILNLTQALKDNKCPLHLVQMPPVIVETARSHQRSSSESYTQSFQSRKPFFSWW
notes: It constitutes the major PtdIns 4-kinase activity of bovine uteri; from tissue; host or cells: bovine uterus (acetone powder, purified over ammonium sulfate, Mono Q, S-Sepharose, Mono Q, Mono P and hydroxylapatite)
Km: 18 µM
